From the nanobody polyreactivity screen of Harvey et al. (2022)

assay: yeast display, Sf9 membrane polyspecificity reagent, FACS + sequencing; frameworks hold sequencing errors
Procedure, shortened: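 After 36–48 hours of galactose induction, yeast (Saccharomyces cerevisiae BJ5465) displaying a synthetic nanobody library were stained at 4 °C for 1 hour with 10% biotinylated, detergent-solubilized Sf9 membrane reagent. Streptavidin microbeads enriched the stained cells before FACS sorting into low and high (top ~1%) gates on anti-HA and streptavidin fluorescence. Each clone's polyreactivity label reflects its gate of origin.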

Sequence	polyreactivity (PSR sort gate)
QVQLVESGGGLVQAGGSLRLSCAASGRIFQYNAMGWYRQAPGKERELVAAIRRGGGSTYYADSVKGRFTISRDNAKNTVYLQMNSLKPEDTAVYYCAADASSQIWYYPRDDYWGQGTQVTVSS	low polyreactivity
QVQLVESGGGLVQAGGSLRLSCAASGRIFQYYAMGWYRQAPGKERELVAAISGRGTSTYYADSVKGRFTISRDNAKNTVYLQMNRLKPEDTAVYYCNADINYKSYFIHTFTIIPYGYWGQGTLVTVSS	low polyreactivity
QVQLVESGGGLVQAGGSLRLSCAASGRIFQYYAMGWYRQAPGKERELVAAITSGGRTTYADSVKGRFTISRDNAKNTVYLQMNSLKPEVTAVYYCNAKTWYSYNYWGQGTQVTVSS	high polyreactivity
QVQLVESGGGLVQAGGSLRLSCAASGRIFQYYVMGWYRQAPGKERELVARITYIGGGTYYADSVKGRFTMSRDNAKNTVYLQMNSLKPEDTAVYYWYARYPWREWEDDYWGQGTQVTVSS	low polyreactivity
QVQLVESGGGLVQAGGSLRLSCAASGRIFRANAMGWYRQAPGKERELVAGITRRGGSTNYADSVKGRFTISRDNAKTTVYLQMNSLKPEDTAVYYCNRDVSLSTSIRMDYWGQGTQVTVSS	low polyreactivity
QVQLVESGGGLVQAGGSLRLSCAASGRIFRDYAMGAYRPAPGKERELGATITRSGGRTYYADSVKGRFTISRDNAKNTVYLQMNSLKPEDTAVYYCAARWRIVSGRFDYWGQGTQVTVSS	high polyreactivity
QVQLVESGGGLVQAGGSLRLSCAASGRIFRDYAMGWYRQAPGKERELVAAIRSVGNTNYADSVKGRFTISRDNAKNTVYLQMNSLKPEDTAVYYCNRQGSDFSRQAIGDFRFDYWGQGTQVTVSS	low polyreactivity
QVQLVESGGGLVQAGGSLRLSCAASGRIFRDYAMGWYRQAPGKETELVATITWSGATTYYADSVKGRFTISRDNAKNTVYLQMNSLKPEDTAVYYCNTDTDVDVAFDSWGQGTQVTVSS	low polyreactivity
QVQLVESGGGLVQAGGSLRLSCAASGRIFRDYVMGWYRQAPGKERELVAAISRGGSTYYADSVKGRFTISRDNAKNTVYLQMNSLKPEDTAVYYCAASWRSYSQLDYYWGQGTQVTVSS	high polyreactivity
QVQLVESGGGLVQAGGSLRLSCAASGRIFRFYAIGAYRQAPGKERELVAVISTGGSTNYADSVKGRFTISRDNAKNTVYLQMNSLKPEDTAVYYCAKRKQSWGPGYSYYSSQYSMDYWGQGTLVTVSS	high polyreactivity
QVQLVESGGGLVQAGGSLRLSCAASGRIFRFYAMGWYRQAPGKERELVAAISWRGGRTYYADSVKGRFTISRDNAKNTVYLQMNSLKPEDTAVYYCNADKYETSGWKYDSWGQGTQVTVSS	low polyreactivity
QVQLVESGGGLVQAGGSLRLSCAASGRIFRFYAMGWYRQAPGKERELVAAITRNVGSTFYADSVKGRFTISRDNAKNTVYLQMNSLKPEDTAVYYCAAESDYYYRYTFDYWGQGTQVTVSS	low polyreactivity
QVQLVESGGGLVQAGGSLRLSCAASGRIFRFYAMGWYRQAPGKETELVATINSGVGRTYYADSVKGRFTISRDNAKNTVYLQFNSLKPEDTAVYYCAAEKRSYPQSYYYWGQGTQVTVSS	high polyreactivity
QVQLVESGGGLVQAGGSLRLSCAASGRIFRGNAMGWYRQARGKERELVAGISVRGGRTYYADSVKGRFTISRDNAKNTVYLQMNSLKPEDTAVYYCAAVFWDDYGKYYYWGQGTQVTVSS	high polyreactivity
QVQLVESGGGLVQAGGSLRLSCAASGRIFRGYAMGWYRQAPGKERELVAAIDTDTGITYYADSVKGRFTISRDNAKNTVYLQMNSLKPEDTAVYYCAAETYYAVSTGYYFDYWGQGTQVTVSS	high polyreactivity
QVQLVESGGGLVQAGGSLRLSCAASGRIFRGYAMGWYRQAPGKERELVAAISGSGGSTYYADSVKGRFTISRDNAKNTVYLQMNSLKPEDTAVYYCNAGWYFYGETTDDYWGQGTQVTVSS	low polyreactivity
QVQLVESGGGLVQAGGSLRLSCAASGRIFRGYAMGWYRQAPGKERELVAAITTNGGSTYADSVKGRFTISRDNAKNTVYLQMNSLKPEDTAVYYCAARRVGWARGSGNYDYWGQGTQVTVSS	low polyreactivity
QVQLVESGGGLVQAGGSLRLSCAASGRIFRGYAMGWYRQAPGKERELVATINASGGTTYYADSVKGRFTISRDNAKNTVYLQMNSLKPEDTAVYYCNARYRRFFSGYGYWGQGTQVTVSS	high polyreactivity
QVQLVESGGGLVQAGGSLRLSCAASGRIFRINAMGWYRQAPGKERELVATITSGGGSTYADSVKGRFTISRDNAKNTVYLQMNSLKPEDTAVYYCAARSRIGRYTYDYWGQGTQVTVSS	high polyreactivity
QVQLVESGGGLVQAGGSLRLSCAASGRIFRIYAMGWYRQAPGKERELVASITWRGGRTYYADSVKGRFTISRDNAKNTVYLQMNSLKPEDTAVYYCAATSSTSYYWGQGTQVTVSS	high polyreactivity
QVQLVESGGGLVQAGGSLRLSCAASGRIFRKYTMGWYRQAPGKERELVAAISRNGGDTYYADSVKGRFTISRDNAKNTVYLQMNSLKPEDTAVYYCNARTPTDSTHFDYWGQGTQVTVSS	low polyreactivity
QVQLVESGGGLVQAGGSLRLSCAASGRIFRLYAMGWYRQAPGKERELVAAIRVSGNTYYADSVKGRFTISRDNAKNTVYLQMNSLKPEDTAVYYCAAKPYYFYGMDYWGQGTQVTVSS	high polyreactivity

Sequence	polyreactivity (PSR sort gate)
QVQLVESGGGLVQAGGSLRLSCAASGRIFRLYAMGWYRQAPGKERELVAAITSSGSSTYYADSVKGRFTISRDNAKNTVSLQMNSLKPEDTAVYYCNARYTYPYHFGYWGQGTQVTVSS	high polyreactivity
QVQLVESGGGLVQAGGSLRLSCAASGRIFRNTMGWYIQAPGKERELVAAITDTTDSTYYADSVKGRFTISRDNAKNTVYLQMYSLKPEDTAVYYCAARYGGYVNRPYYYWGQGTQVTVSS	low polyreactivity
QVQLVESGGGLVQAGGSLRLSCAASGRIFRPNAMGWYRQAPGKERELVAAMTSGGSTNYADSVKGRFTISRDNAKNTVYLQMNSLKPEDTAVYYCAKGYKYGKNIYYYWGQGTQVTVSS	high polyreactivity
QVQLVESGGGLVQAGGSLRLSCAASGRIFRPYAMGWYRQAPGKERELVAAITQSGGITSYADSVKGRFTISRDNAKYTVYLQMNSLKPEDTAVYYCAADDFTTAGFGMDYWGEGTQVTVSS	low polyreactivity
QVQLVESGGGLVQAGGSLRLSCAASGRIFRPYTMGWYRQAPGKEWELVAAISIGGRTYYADSVKGRFTISRDNAKNTVYLKMNSLKPEDTAVYYCAAVGGSDRRARPGRAVDYWGQGTQVTVSS	high polyreactivity
QVQLVESGGGLVQAGGSLRLSCAASGRIFRRKTMGWYRQAPGKERELVAAITSRGGSTYYADSVKGRFTISRDNAKNTFYLKMNSLIPEDTGFYYCNTRVVPEIYDYWGQGSQVTVSS	high polyreactivity
QVQLVESGGGLVQAGGSLRLSCAASGRIFRRNTMGWYRQAPGIERELVAAITSSGGSTYADSVKGRFTISRDNAKNTVYLQMNSLKPEDTAVYYCATYVAYHRGYRTYDHWGQGTQVTVSS	low polyreactivity
QVQLVESGGGLVQAGGSLRLSCAASGRIFRRYAMGWYRQAPGKERELVAAISSGGGSTYYADSVKGRFTISRDNAKNTVYLQMNSLKPEDTAVYYCNTDFYYDDVSQAHDYWGQGTQVTVSS	high polyreactivity
QVQLVESGGGLVQAGGSLRLSCAASGRIFRRYAMGWYRQAPGKERELVASISLSGGSTYYADSVKGRFTISRDNAKNTVYLQMNSLKPEDTAVYYCAAVIRAYATRATYNSWGQGTQVTVSS	high polyreactivity
QVQLVESGGGLVQAGGSLRLSCAASGRIFRRYAMGWYRQAPGKERELVASITWGGSSTSYADSVKGRFTISRDNAKNTVYLQMNSLKPEDTAVYYCNADFPTAIPYGYDYWGQGTQVTVSS	low polyreactivity
QVQLVESGGGLVQAGGSLRLSCAASGRIFRRYAMGWYRQAPGKERELVSAITSGSSTYYADSVKGRFTISRDNPKNTVNLQMISVKPEYSAVYYCAALGYTYKYYSYYWGHGTQVTVSS	high polyreactivity
QVQLVESGGGLVQAGGSLRLSCAASGRIFRRYVMGWYRQAPGKERELVARIRIRDSNTYYADSVKGRCTISRDNAKNTVYLQMNSLKPEDTAVYYCAVVANYVYSKYDYWGQGTQVTVSS	low polyreactivity
QVQLVESGGGLVQAGGSLRLSCAASGRIFRRYVMGWYRQAPGKERELVARIRIRDSNTYYADSVKGRFTISRDNAKNTVYLQMNSLKPEDTAVYYCAVVANYVYSKYDYWGQGTQVTVSS	low polyreactivity
QVQLVESGGGLVQAGGSLRLSCAASGRIFRSNAMGWYRQAPGKERELVAVINSDDSTYYADSVKGRFTISRDNAKNTVYLQMNCLKPEDTAVYYCAAEPQYTRHMDSWGQGTQVTVSS	low polyreactivity
QVQLVESGGGLVQAGGSLRLSCAASGRIFRSNAMGWYRQAPGKERELVAVINSDDSTYYADSVKGRFTISRDNAKNTVYLQMNSLKPEDTAVYYCAAEPQYTRHMDSLGQGTQVTVSS	low polyreactivity
QVQLVESGGGLVQAGGSLRLSCAASGRIFRSYALGWYRQAPGKERELAAAISYGGGSTYYADSVKGRFTISRDNAKNTVYLQMNSLKPEDTAVYYCAARGYSRPMDYWGQGTQVTVSS	high polyreactivity
QVQLVESGGGLVQAGGSLRLSCAASGRIFRSYAMGWYRQAPGKERELVAAITGSTGSTSYADSVKGRFTISRDNAKNTVYLQMNSLKPEDTAGYYCNAEYSSGYGQSHTYFYEYDYWGHGTQVTVSS	low polyreactivity
QVQLVESGGGLVQAGGSLRLSCAASGRIFRVYAMGWYRQAPGKERELVAAISSGGSTNYADSVKGRFTISRDNAKNTVYLQMNSLKPEDTAVYYCAATVRGVGYRYYYWGQGTQVTVSS	high polyreactivity
QVQLVESGGGLVQAGGSLRLSCAASGRIFRVYAMGWYRQAPGKERELVAAISSRGGRTYYADSVKGRFTISRDNAKNTVYLQMNSLKPEDTAVYYCAADGRSCSRTTSRYDYWGQGTQVTVSS	high polyreactivity
QVQLVESGGGLVQAGGSLRLSCAASGRIFRYNAMGWYRQAPGKERELVAAISGTGDRTYYADSVKGRFTISRDNAKNTVYLQMNSLKPEDTAVYYCAARGLFFRNRYGYWGQGTQVTVSS	high polyreactivity
QVQLVESGGGLVQAGGSLRLSCAASGRIFRYNAMGWYRQAPGKERELVAAISRGDGSTYYADSVKGRFTISRDNAKNTVYLQMNILKPEDTAVYYCAAAWSFIYFQHPAFKYDYWGQGTQVTVSS	low polyreactivity
